B1: H1: humanized anti-IGLV3-21^R110 CAR, VL SEQ ID NO: 7, VH SEQ ID NO: 11, scFv SEQ ID NO: 13 (protein)
scFv: EIVLTQSPSSLSASVGDSVTITCRASGNIHSYLAWYQQKPGKAPKLLIYNAKTLADGVPSRFSGSGSGTQYTLTISSLQPEDFATYYCQHFWNTPPTFGAGTKLELKGGGGSGGGGSGGGGSGGGGSQVQLQESGPGLVKPSETLSLTCTVSGFSLTSYGIHWIRQSPGRGLEWIGVIWRGGGTDSNAAFMSRVTISVDTSKSQVSLKLGSVTAADTAIYYCARSRYDEEESMNYWGQGTSVTVSS
B2: H2: humanized anti-IGLV3-21^R110 CAR, VL SEQ ID NO: 7, VH SEQ ID NO: 12, scFv SEQ ID NO: 14 (protein)
scFv: EIVLTQSPSSLSASVGDSVTITCRASGNIHSYLAWYQQKPGKAPKLLIYNAKTLADGVPSRFSGSGSGTQYTLTISSLQPEDFATYYCQHFWNTPPTFGAGTKLELKGGGGSGGGGSGGGGSGGGGSQVQLQESGPGLVKPSETLSLTCTVSGFSLTSYGIHWIRQSPGRGLEWIGVIWRGGGTDSNAAFMSRITISRDTSKTQVSLKLGSVTAADTAIYYCARSRYDEEESMNYWGQGTSVTVSS
B3: mAb01-01: murine monoclonal anti-IGLV3-21^R110 antibody, VL SEQ ID NO: 44, VH SEQ ID NO: 45 (antibody, listed as Mus musculus, V domains shown)
VH: QVQLQQSGPGLVQPSQSLSITCTVSGFSLTSYGIHWVRQSPGKGLEWLGVIWRGGGTDSNAAFMSRLSITKDNSKSQVFFKMNSLQADDTAIYYCARSRYDEEESMNYWGQGTSVTVSS
VL: QIVLTQSPASLSASVGETVTITCRASGNIHSYLAWYQQKQGKSPQLLVYNAKTLADGVPSRFSGSGSGTQYSLKINSLQPEDFGSYYCQHFWNTPPTFGAGTKLELK

How the values were obtained:
[1] = system: OCI-LY1 R110 cell line (OCIR110); assay: In-vitro cytotoxicity assay (IncuCyte Caspase-3/7), OCI-LY1 R110; format: cell-based, human; settings: construct 1: IgG4 hinge spacer; construct 2: additional CH2-CH3 spacer
Experimental: Neoepitope (i.e. cancer-specific peptide) engineered cell line OCI-LY1 R110 expressing the IGLV3-21^R110 light chain as part of a BCR with induced R110 point mutation was generated from OCI-LY1 wt cells. First, OCI-LY1 wt cells were cultivated in RPMI 1640 Medium, GlutaMAX™ Supplement (Thermo Fisher, Cat. 61870044) supplemented with 20% (v/v) FBS (Life Technologies, Cat. 10500064) and 1% (v/v) penicillin-streptomycin (10,000 U/mL) (Thermo Fisher, Cat. 15140122) at 37° C. in a humidified atmosphere including 5% CO2. […]
Target cells seeded at 2×10^4 cells/well in a 96-well plate were co-incubated with effector cells at effector-to-target (E: T) ratio 5:1 in complete CTL medium consisting of RPMI 1640 Medium GlutaMAX™ Supplement (Thermo Fisher, Cat. 61870044) supplemented with 10% (v/v) FBS (Life Technologies, Cat. 10500064), 1% (v/v) penicillin-streptomycin (10,000 U/mL) (Thermo Fisher, Cat. 15140122), 50 μM β-mercaptoethanol (Thermo Fisher, Cat. 31350010) and 50 U/mL IL-2 (StemCell, Cat. 78036.1). CAR T cell mediated tumor cell killing was assessed using the IncuCyte@ Caspase-3/7 Green Reagent for Apoptosis (Sartorius, Cat. 4440) according to the manufacturer's instructions. Read out of dead (-green-fluorescent) target cells was performed on an
IncuCyte@ S3 (Sartorius) after 2 to 16 hours or 4 to 36 hours. The killing graphs were calculated by the IncuCyte@ software (version 2022A). […]

[2] = target: T1, IGHV3-21/IGLV3-21^R110 BCR (Homo sapiens, UniProt P80748); assay: FACS binding assay on BCR-expressing TKO cells; settings: fluorescently labeled anti-mouse IgG
T1 construct: a complete light chain (LC) DNA covering IGLV3-21^R110 were synthesized; expressed in transfected cells; host or cells: murine triple knockout (TKO) pro-/pre-B cells, retroviral spinfection
Description: (§1) The screening for positive clones was not performed by enzyme linked immunosorbent assay (ELISA) as usual. Since the target structure is a membrane-bound receptor, it is of central importance to validate the binding of the potential antibodies in a cellular system, i.e. while largely preserving the cell physiological states native to this cell type. First, groups of pooled supernatants were examined for binding events using fluorescence activated cell sorting (FACS) analysis. For this purpose different BCR variants were expressed on the surface of a triple knockout (TKO) cell line, which cannot express BCR itself.
(§2) For reconstitution with a ‘BCR of interest’, the corresponding sequence coding for the VH was fused with a human IgM constant segment by polymerase chain reaction (PCR), and heavy (HC) and light (LC) chains were cloned into respective expression vectors each having a CMV promoter. These were introduced into the packaging cell line (Phoenix cell line) by lipofection. After 36 hours of incubation, the virus supernatant was removed and used for spinfection of the TKO cells. BCR expression was determined using anti-IgM and anti-LC antibodies on FACS. For this purpose, some cells were taken and stained with 5 μl antibody each in a total volume of 100 μl in PBS. Both the work to extract the supernatants and the spinfection of the TKO are widely known procedures and known to experts. […]

[3] = system: wild-type IGLV3-21G110-variant; assay: FACS binding assay on BCR-expressing TKO cells (germline control); set-up: species or system human; settings: fluorescently labeled anti-mouse IgG
Description: as §1, §2

wild-type IGLV3-21G110-variant, sequence (as listed by the source): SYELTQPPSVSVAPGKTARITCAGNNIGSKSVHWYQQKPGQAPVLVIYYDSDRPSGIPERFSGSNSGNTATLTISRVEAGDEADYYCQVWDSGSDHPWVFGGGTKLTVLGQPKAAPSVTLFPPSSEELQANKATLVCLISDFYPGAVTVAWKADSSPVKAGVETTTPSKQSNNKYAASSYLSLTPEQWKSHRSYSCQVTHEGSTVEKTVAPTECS
wild-type IGLV3-21G110-variant, sequence (P01871 with tags, fused parts or gaps partner): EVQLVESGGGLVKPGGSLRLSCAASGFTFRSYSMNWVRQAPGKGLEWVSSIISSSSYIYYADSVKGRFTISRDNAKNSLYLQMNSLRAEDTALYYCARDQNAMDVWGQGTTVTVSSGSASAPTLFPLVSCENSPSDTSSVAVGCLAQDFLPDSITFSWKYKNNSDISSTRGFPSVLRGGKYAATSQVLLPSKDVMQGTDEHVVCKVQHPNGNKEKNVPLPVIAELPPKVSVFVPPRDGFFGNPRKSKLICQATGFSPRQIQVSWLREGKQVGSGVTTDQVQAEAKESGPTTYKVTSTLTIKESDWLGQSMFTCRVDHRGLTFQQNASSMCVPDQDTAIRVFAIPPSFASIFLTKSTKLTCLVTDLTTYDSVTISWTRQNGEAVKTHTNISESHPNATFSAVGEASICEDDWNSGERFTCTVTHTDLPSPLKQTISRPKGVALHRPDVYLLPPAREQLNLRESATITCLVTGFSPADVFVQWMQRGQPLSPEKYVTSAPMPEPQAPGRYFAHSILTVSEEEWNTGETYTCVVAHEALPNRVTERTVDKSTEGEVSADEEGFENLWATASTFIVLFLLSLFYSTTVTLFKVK
wild-type IGLV3-21G110-variant, sequence (P11911 29-220 partner): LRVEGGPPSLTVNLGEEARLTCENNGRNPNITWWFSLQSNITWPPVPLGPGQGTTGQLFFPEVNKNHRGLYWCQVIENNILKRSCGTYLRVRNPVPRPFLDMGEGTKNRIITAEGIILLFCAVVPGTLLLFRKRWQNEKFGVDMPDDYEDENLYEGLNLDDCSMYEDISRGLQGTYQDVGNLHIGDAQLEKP
wild-type IGLV3-21G110-variant, sequence (P15530 26-228 partner): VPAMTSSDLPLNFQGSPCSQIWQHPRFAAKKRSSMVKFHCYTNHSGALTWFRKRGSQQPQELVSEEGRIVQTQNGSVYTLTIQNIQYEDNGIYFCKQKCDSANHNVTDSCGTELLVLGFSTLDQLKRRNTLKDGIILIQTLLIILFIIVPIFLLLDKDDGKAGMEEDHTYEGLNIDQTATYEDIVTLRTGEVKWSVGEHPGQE
T1 sequence (P80748 with tags, fused parts or gaps V22E/Q35K/G42A/V66I/D68Y/S112G): as the sequence (as listed by the source) above, with G110R counted along it

Row | Molecule | killing capacity, CAR construct 1 versus CAR construct 2 [1] | binding to IGLV3-21^R110-BCRs [2] | binding to wild-type IGLV3-21G110-variant [3]
1 | B1 | remarkably higher in CAR construct 1 than in CAR construct 2 |  | 
2 | B2 | remarkably higher in CAR construct 1 than in CAR construct 2 |  | 
3 | B3 |  | high specificity and cross-reactivity | without any detectable binding

Source: patent publication US20260035459A1, “HUMANIZED CHIMERIC ANTIGEN RECEPTORS TARGETING THE B-CELL RECEPTOR OF CHRONIC LYMPHOCYTIC LEUKEMIA AND USES THEREOF” (AVA LIFESCIENCE GMBH, priority 2022, published 2026)
